3 molecules from patent US9127076B2, “Modified peptides having toxin-enhancing effects” (The University of Georgia Research Foundation, dated 2015) can be followed below.

To fix the notation:
B1: Sf-CR10-12(PS) (receptor)
chain: MAFLDCLSATDEDGLHAGCVTFSIAGNDEAAEYFNVLNDGDNSAMLTLSQALPAGVQQFELVISATDGGTEPGPSSTDCSVTVVFVMTQGDPVFDDNAASVSFVEHEAGMSESFQLPQADDPSNYACMDDCHTIYYSIVDGNDGDHFAVEPETNVIYLLSPLDSSQQEQYSVVVAASNTPGGTSTLSSSLLTVTIGVSEANPSPIFESEFYTAGVLHTDSIHSELVYLAASHSEGLPIVYSIDQETMSIDESLQTVVEDAFDINSATGVISLNFQPTSVMHGSFDFEVVASDTCGASDCASVSIYMISTRVRVHHHHHH
B2: Sf-CR10-12 (receptor)
chain: MKFLDRLSATDEDGLHAGRVTFSIAGNDEAAEYFNVLNDGDNSAMLTLKQALPAGVQQFELVIRATDGGTEPGPRSTDCSVTVVFVMTQGDPVFDDNAASVRFVEKEAGMSEKFQLPQADDPKNYRCMDDCHTIYYSIVDGNDGDHFAVEPETNVIYLLKPLDRSQQEQYRVVVAASNTPGGTSTLSSSLLTVTIGVREANPRPIFESEFYTAGVLHTDSIHKELVYLAAKHSEGLPIVYSIDQETMKIDESLQTVVEDAFDINSATGVISLNFQPTSVMHGSFDFEVVASDTRGASDRAKVSIYMISTRVRVHHHHHH
B3: Ms-CR10-12(PS) (receptor)
chain: MHLECISATDPDGLHAGVVTFQVVGDEESQAYFQVVNDGANLGSLSLLQAVPEEIAEFSITICATDQGTDPGPLSTDMTFAVVFVPTQGEPAFASSEHAVAFIEASAGMEESHQLPLAQDIANHLCEDDCHSIYYAIIDGNSEGHFGLDPVANALFLSAELIAEQSASHTLQVAASNSPDGGIPLPASILTVTVTVAEADPAPVFMAELYTAGISTADSIGCELLALHATQSEGAAITYAIDYDTMVVDPSLEAVCQSAFVLNAQTGVLTLNIQPTATMHGLFNFEVTATDTAGAQDRTDVTVYVVSSQNRLEHHHHHH

In the experiment the target is Cry1Fa toxin (Bacillus thuringiensis, UniProt Q03746). Put plainly: cell-based or functional assay.
Take B1: the “larval mortality and larval weight, diet surface bioassay, neonate S. frugiperda, 0.1 µg/cm^2 Cry1Fa” value (“larval mortality and larval weight” below) was ~4 fold.

As to B2, the “larval mortality and larval weight” value is ~2 fold.

As for B3, the “larval mortality and larval weight” value was < 2 fold.
